Consider one substance from paper PMC6588694.

This test has as its target concanavalin A. The test can be described thus: SEC; Superdex 200 Increase 10/300 GL, 50 mM Tris, 150 mM NaCl, 100 mM glucose; molecular weight calibrated with a gel filtration calibration kit.

A word on the stoichiometry N: it is a count of units in the complex or per binding partner. concanavalin A (natural protein): the stoichiometry N amounted to 4.
